The text below walks through data of patent US8445240B2, “Termite enzymes and uses thereof for in vitro conversion of lignin-containing materials to fermentable products” (University of Florida Research Foundation, Inc., priority 2009, dated 2013).

Series [1] deals with R. flavipes worker gut esterases. As to the kind of experiment: Gut esterase activity toward naphthyl esters, native PAGE and colorimetric microplate assays. In kind it is biochemical, Reticulitermes flavipes. To be noted: foregut/salivary gland, midgut, hindgut. The method, then:
Dissections, protein preparation, centrifugation protocols, and protein assays: All manipulations were performed on ice. For tissue localization studies, 25 termite worker guts were removed and dissected into the three regions of foregut/salivary gland, midgut and hindgut. Each gut region preparation was homogenized using a Tenbroeck glass homogenizer in potassium phosphate (0.1M, pH 7.6), and then centrifuged for 15 min at 14,000×g and 4° C. The supernatant was saved for assays and the pellet discarded.
Gut esterase activity toward naphthyl esters with varying carbon chain lengths: Activities toward different naphthyl ester substrates were investigated in different regions of the termite gut using native PAGE, as above, the results being shown in FIGS. 4 and 5. […].
. Differences in activity between α-naphthyl butyrate and acetate were not as evident on native PAGE as in activity assays. Thus, the majority/greatest diversity of gut esterase activity in R. flavipes is located in the midgut, and that activity is greatest toward the 3-carbon ester naphthyl propionate. […]

Substrate in series [2]: Oc1ccccc1O
Kind of series: purified protein, by the assay type. To be noted: other: RfLacA.

Substrate in series [3]: COc1cc(/C=C/C(=O)O)cc(OC)c1O
Kind of series: purified protein, by the assay type. To be noted: other: RfLacA.

Substrate in series [4]: COc1cccc(OC)c1O
Kind of series: purified protein, by the assay type. To be noted: other: RfLacA; substrate concentration providing ½ maximal activity.

Substrate in series [5]: O=[N+]([O-])c1ccc(O[C@@H]2O[C@H](CO)[C@@H](O)[C@H](O)[C@H]2O)cc1
As to the kind of experiment: Activity of recombinant RfBGluc-1 towards synthetic nitrophenol substrates, kinetic microplate assay. To be noted: other: synthetic NP substrates; read kinetically at 420 nm; mean ± standard error, 3-5 replicates; pH 6.0. In kind it is biochemical, Reticulitermes flavipes. As to the method: (§1) All initial characterization assays took place in 0.1 M sodium acetate buffer (pH 6) using 2 μL of recombinant enzyme preparation (=1.58 μg protein per assay) in a total reaction volume of 250 μL. Synthetic p-nitrophenol substrates (Table 1) were tested in direct kinetic assays using a microplate reader. Reactions were initiated by adding 248 μL assay buffer to 2 μL protein. Assays were read at 420 nm every 20 sec for 5 min to yield mean velocity data in mOD/min. Specific activity was determined with the p-nitrophenol extinction coefficient of 0.6605 mM^−1 cm^−1. All results were averaged from three independent replicates, each conducted in triplicate.

Substrate in series [6]: O=[N+]([O-])c1ccc(O[C@@H]2O[C@H](CO)[C@@H](O[C@@H]3O[C@H](CO)[C@@H](O[C@@H]4O[C@H](CO)[C@@H](O)[C@H](O)[C@H]4O)[C@H](O)[C@H]3O)[C@H](O)[C@H]2O)cc1
The series is described as above. In kind it is biochemical, Reticulitermes flavipes. To be noted: other: synthetic NP substrates; read kinetically at 420 nm; mean ± standard error, 3-5 replicates; pH 6.0. The method, then:
as §1

Substrate in series [7]: C[C@H]1O[C@@H](Oc2ccc([N+](=O)[O-])cc2)[C@H](O)[C@@H](O)[C@H]1O
Described as above. In kind it is biochemical, Reticulitermes flavipes. To be noted: other: synthetic NP substrates; read kinetically at 420 nm; mean ± standard error, 3-5 replicates; pH 6.0. As to the method:
as §1

Substrate in series [8]: O=[N+]([O-])c1ccc(O[C@@H]2O[C@H](CO)[C@@H](O[C@@H]3O[C@H](CO)[C@@H](O)[C@H](O)[C@H]3O)[C@H](O)[C@H]2O)cc1
The description is as above. Format: biochemical, Reticulitermes flavipes. To be noted: other: synthetic NP substrates; read kinetically at 420 nm; mean ± standard error, 3-5 replicates; pH 6.0. As to the method: as §1

Substrate in series [9]: O=[N+]([O-])c1ccccc1O[C@@H]1OC[C@@H](O)[C@H](O)[C@H]1O
The series is described as above. In kind it is biochemical, Reticulitermes flavipes. Particulars: other: synthetic NP substrates; read kinetically at 420 nm; mean ± standard error, 3-5 replicates; pH 6.0. As to the method:
as §1

Substrate in series [10]: O=[N+]([O-])c1ccc(O[C@@H]2O[C@H](CO)[C@@H](O[C@@H]3O[C@H](CO)[C@@H](O[C@@H]4O[C@H](CO)[C@@H](O[C@@H]5O[C@H](CO)[C@@H](O)[C@H](O)[C@H]5O)[C@H](O)[C@H]4O)[C@H](O)[C@H]3O)[C@H](O)[C@H]2O)cc1
The series is described as above. Particulars: other: synthetic NP substrates; read kinetically at 420 nm; mean ± standard error, 3-5 replicates; pH 6.0. Format: biochemical, Reticulitermes flavipes. The method, then:
as §1

Substrate in series [11]: O=[N+]([O-])c1ccccc1O[C@@H]1O[C@H](CO)[C@@H](O)[C@H](O)[C@H]1O
The series is described as above. In kind it is biochemical, Reticulitermes flavipes. To be noted: other: synthetic NP substrates; read kinetically at 420 nm; mean ± standard error, 3-5 replicates; pH 6.0. The method, then:
as §1

Substrate in series [12]: OC[C@H]1O[C@@H](O[C@H]2[C@H](O)[C@@H](CO)OC(O)[C@@H]2O)[C@H](O)[C@@H](O)[C@@H]1O
Kind of series: Activity of recombinant RfBGluc-1 towards natural substrates, endpoint glucose detection assay. To be noted: other: natural substrates; endpoint at 505 nm, glucose detection reagent; mean ± standard error. Format: biochemical, Reticulitermes flavipes.
Description: (§2) Natural carbohydrate substrates (Table 2) were tested in endpoint assays in which color development was enabled using 439-90901 glucose-mutarose detection reagent (Wako Chemical; Richmond, Va.). Assays were conducted in 125 μL for 5 min at room temperature as described above and stopped with the addition of 125 μL glucose detection reagent. After 1 min, the absorbance was read at 505 nm.

Substrate in series [13]: OCc1ccccc1O[C@@H]1O[C@H](CO)[C@@H](O)[C@H](O)[C@H]1O
The series is described as above. Format: biochemical, Reticulitermes flavipes. To be noted: other: natural substrates; endpoint at 505 nm, glucose detection reagent; mean ± standard error.
Description: as §2

Series [14] in a line: Recombinant Cell-3 exoglucanase activity in unpurified form. To be noted: for activity toward pNPC relative to uninfected control larvae: homogenates of infected larvae. In kind it is biochemical. From the text:
Recombinant Cell-3 characterization: The recombinant Cell-3 protein (nucleotide sequence SEQ ID NO.: 3; amino acid sequence SEQ ID NO.: 4) was investigated in unpurified form. […] Other experiments investigating activity in crude homogenates over time and after repeated freeze-thaw cycles further verified reduced Cell-3 stability.

Series [15] can be described thus: Glucose release from pine sawdust by recombinant enzymes and mixtures. In kind it is biochemical. Particulars: 2% w/v, 18 hrs, 37° C., pH 7. The method, then: All reactions were performed in 0.1 M sodium acetate buffer containing 10 mM calcium chloride (pH 7). The two feedstock substrates were pine sawdust (=lignin+cellulose+hemicellulose) and beechwood xylan (=lignin+hemicellulose). Feedstocks were tested at 2% w/v (10 mg in 0.5 mL buffer). Reactions were run for 18 hrs at 37° C. with shaking at 220 rpm in vented 1.5 mL plastic tubes.
Protein volumes used per assay were 10 μL of each of the Cell-1, β-glucosidase, and Laccase 6 recombinant protein preparations. These loading volumes provided 8.5, 7.9 and 2.0 μg of each protein, respectively, per reaction. The storage buffer for Cell-1 and β-glucosidase was 0.1 M sodium acetate, 0.15 M sodium chloride, and 0.5 M calcium chloride (pH 5.8). The storage buffer for Laccase 6 was 0.1M boric acid, phosphoric acid, and acetic acid (pH 7.0).
Reactions were stopped after 18 hours by the addition of 10 μL of 0.2 Methylene-diamine tetra-acetic acid and centrifuged for 5 min at 16,000×g. Glucose detection was performed in triplicate on 125 μL aliquots of each reaction supernatant. The entire experiment was replicated three times. Glucose release was measured using the Autokit Glucose reagent kit (Wako Chemical, Richmond, Va.) at a volume of 125 μL per determination. Glucose was quantified based on absorbance at 505 nm relative to glucose standard curves. Standard curves were prepared in eight serial dilutions downward from 0.6 mM in sodium acetate-calcium chloride reaction buffer.

Setting [16] is: substrate concentration providing ½ maximal activity.

Regarding `CCCCCCCC(=O)Oc1cccc2ccccc12` [α-naphthyl caprylate], the “gut esterase activity toward the substrate” value in series [1] is “lowest esterase staining activity”.
On the same count and under the same terms, with `CCC(=O)Oc1cccc2ccccc12` [α-naphthyl propionate] the entry was “significantly greatest activity”.

B1: RfLacA (Reticulitermes flavipes) (protein)
chain: TSVLLNSYLQPNDDIDRNTYLLNAKSNNCARICNGTEAPKICYYQWTIENYVTLSEACDNCPLNVTACYNAQCITADGYERSILSVNRKLPGPSIEVCLRDRVIVDITNNMAGRTTSIHWHGVFQKGSQYMDGVPMVTQCTIHEGDTFRYDFIANNEGTHFWHSHDGLQKLDGVTGNLVVRVPKNFDPNGQLYDFDLPEHKIFISDWLHLSADDHFPGLRATNPGQDANSFLINGRGRTLIGTQSTNTPYAQINVQWGRRYRLRIVGSLCTVCPTQLTIDGHKITVIATDGNSVAPARVDSLIIYSGERYDVVLEATNTEGSYWIHLKGLATCVGSRVYQLGVLQYENTTTNKLHALTPDPGYDGFPQPASYRVLNPENASCSIGSTGLCVTQLANSDPVPRDILTQLPDINYLLQFGFETFDSRSFFKAYDRYFVSPFLELLSSTVNNISFVSPPSPLLSQRGDVPDDILCPTGADGLPQCPGGNSYCTCVHVIKIKLGALVQIILSDQSPKSDLNHPFHIHGHAFYVLGMGQYAAGQTAQDLLNSLKSNVSSVSPAPVLKDTVAVPSGGYAIIKFRPKNPGYWFLHCHFLYHVATGMSVVLQVGETSDYPPTPDGFPKCGSFTPPVNTN
As usually defined, the Vmax is the top rate of the reaction or transport when substrate is in excess. Broadly, the Km is the substrate concentration at which the rate is half of its maximum. B1: the figures for the Vmax in [2], in series [3] and in series [4] were 15.4 µM/min, 0.247 µM/min and 0.26 µM/min, respectively. In addition, the Km amounted to 17527 µM in series [2] (setting [16]), 5022 µM in [3] (setting [16]) and 34888 µM in [4].

B2: recombinant RfBGluc-1 β-glucosidase (Reticulitermes flavipes) (protein)
chain: ADVDNETLFTFPEDFKLGAATASYQIEGGWNADGKGVNIWDTLTHERSQLVVDKSSGDVADDSYHLYKEDVKLLKNMGAQLYRFSISWARILPEGHDNKVNQAGIEYYNKLIDELLDNGIEPMVTMYHWDLPQTLQDLGGWPNRELAKYSENYARVLFQNFGDRVKLWLTFNEPLTFMDAYASETGMAPSIDTPGIGDYLAAHTVILAHANIYRMYEREFKEEQKGKVGIALNIHWCEPVTNSTKDVEACERYQQFNLGIYAHPIFSVEGDYPSVLKARVDANSVTEGYTTSRLPKFTTEEVDFIRGTHDFLGLNFYTAVTGADGVEGEPPSRYRDMGAITSQDPDWPESASSWLRVVPWGFRKELNWIANEYGNPPIYITENGFSDYGGLNDTDRVLYYTEHLKEMLKAIHIDEVNVVGYTAWSLVDNFEWLRGYTERFGIHEVNFNDPSRPRVPKESAKVLTEIFNTRRIPERFLD
As for B2, the Michaelis-Menten constant (Km) in [5] was 1660 ± 70 µM; in series [6] it was 1630 ± 500 µM; in series [7], 900 ± 70 µM; in [8] it was 1560 ± 40 µM; in [9], 7570 ± 1170 µM; in series [10], 590 ± 10 µM. The Km in [11] is 1580 ± 190 µM; in series [12], 630 ± 20 µM; in [13] it was 34300 ± 14750 µM. Moreover, the Vmax in series [5] is 22.9 µmol/min/mg; in series [6], 22.6 µmol/min/mg; in [7], 12.6 µmol/min/mg; in [8] it was 13.8 µmol/min/mg; in [9] it was 8.77 µmol/min/mg; in series [10], 16.6 µmol/min/mg. For the same molecule, the values for the Vmax in series [11], in series [12] and in [13] were 4.2 µmol/min/mg, 218 µmol/min/mg and 278 µmol/min/mg, respectively.

B3: Cell-3: recombinant exoglucanase, amino acid sequence SEQ ID NO.: 4, investigated in unpurified form (protein)
chain: MVLCILLQWMQIGGKQKYPAFKPGAKYGRGYCDGQCPHDMKVSSGRANVDGWKPQDNDENSGNGKLGTCCWEMDIWEGNLVSQAYTVHAGSKSGQYECTGTQCGDTDSGERFKGTCDKDGCDFASYRWGATDYYGPGKTVDTKQPMTVVTQFIGDPLTEIKRVYVQGGKVINNSKTSNLGSVYDSLTEAFCDDTKQVTGDTNDFKAKGGMSGFSKNLDTPQVLVMSLWDDHTANMLWLDSTYPTDSTKPGAARGTCAVTSGDPKDVESKQANSQVVYSDIKFGPINSTYKAN
modifications: Reticulitermes flavipes; amino acid sequence exoglucanase (Cell-3)
Turning to B3, the “activity toward pNPC relative to uninfected control larvae” value in series [14] was “significantly higher activity”; in series [14] (listed as recombinant Cell-3), “higher exoglucanase (cellulase) activity than do uninfected homogenates”. Moreover, the “stability of recombinant protein” value in series [14] (pNPC activity in filtrates, over time and after freeze-thaw cycles) was “reduced stability”.

B4: β-glucosidase: recombinant R. flavipes β-glucosidase, amino acid sequence SEQ ID NO.: 6 (protein)
chain: MRLQTVCFVIFVTAVFGADVDNETLFTFPEDFKLGAATASYQIEGGWNADGKGVNIWDKLTHERSQLVVDKSSGDVADDSYHLYKEDVKLLKNMGAQLYRFSISWARILPEGHDNKVNQAGIEYYNKLIDELLDNGIEPMVTMYHWDLPQTLQDLGGWPNRELAKYSENYARVLFQNFGDRVKLWLTFNEPLTFMDAYASETGMAPSIDTPGIGDYLAAHTVILAHANIYRMYEREFKEEQKGKVGIALNIHWCEPVTNSTKDVEACERYQQFNLGIYAHPIFSVEGDYPSVLKARVDANSVTEGYTTSRLPKFTTEEVDFIRGTHDFLGLNFYTAVTGADGVEGEPPSRYRDMGAITSQDPDWPQSASSWLRVVPWGFRKELNWIANEYGNPPIYITENGFSDYGGLNDTDRVLYYTEHLKEMLKANHIDEVNVVGYTTWRPVDNFEWLRGYTERFGIHEVNFNDPSRPRVPKESAKVLTEIFNTRRIPERFLD
modifications: Reticulitermes flavipes; amino acid sequence beta-glucosidase “contig 771”
On to B4, for which the “glucose release from pine sawdust (in words)” value in [15] is on record as “No glucose release was detectable”.
